The target of experiment [1] is human Izumo1, immobilized AVEXIS bait (UniProt Q8IYV9). The experiment can be described thus: AVEXIS. As to conditions: parent: est. 0.16; read off a plot.
The target of experiment [2] is mouse Izumo1, immobilized AVEXIS bait (UniProt Q9D9J7). The experiment can be described thus: AVEXIS. Conditions: parent: est. 0.51; read off a plot.
mouse Izumo1, immobilized AVEXIS bait, sequence (Q9D9J7 22-397): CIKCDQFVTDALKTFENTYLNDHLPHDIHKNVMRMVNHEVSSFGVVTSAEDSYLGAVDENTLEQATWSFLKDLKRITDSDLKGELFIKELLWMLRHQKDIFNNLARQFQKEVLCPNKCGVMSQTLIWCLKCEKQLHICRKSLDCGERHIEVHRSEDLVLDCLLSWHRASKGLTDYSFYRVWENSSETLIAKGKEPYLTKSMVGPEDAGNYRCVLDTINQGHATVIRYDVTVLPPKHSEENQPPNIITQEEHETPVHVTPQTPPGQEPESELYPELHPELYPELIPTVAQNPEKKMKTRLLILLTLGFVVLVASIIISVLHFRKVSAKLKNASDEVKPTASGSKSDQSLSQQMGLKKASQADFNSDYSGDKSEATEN

human Izumo1, immobilized AVEXIS bait, sequence (Q8IYV9 22-350): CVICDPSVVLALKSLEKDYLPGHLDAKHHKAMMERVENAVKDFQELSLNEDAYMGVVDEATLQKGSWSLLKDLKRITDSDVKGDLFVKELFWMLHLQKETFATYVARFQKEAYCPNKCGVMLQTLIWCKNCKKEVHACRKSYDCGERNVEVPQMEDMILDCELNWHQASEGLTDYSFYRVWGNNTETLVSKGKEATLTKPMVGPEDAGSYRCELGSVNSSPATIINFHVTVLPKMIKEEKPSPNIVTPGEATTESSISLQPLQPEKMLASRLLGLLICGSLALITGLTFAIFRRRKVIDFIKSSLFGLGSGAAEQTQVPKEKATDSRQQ
mouse Juno, wild type, AVEXIS prey (from UniProt Q9EQF4) Loop1 (mouse Juno loop 1 replaced with the corresponding human residues), sequence (Q9EQF4 20-222, change not shown): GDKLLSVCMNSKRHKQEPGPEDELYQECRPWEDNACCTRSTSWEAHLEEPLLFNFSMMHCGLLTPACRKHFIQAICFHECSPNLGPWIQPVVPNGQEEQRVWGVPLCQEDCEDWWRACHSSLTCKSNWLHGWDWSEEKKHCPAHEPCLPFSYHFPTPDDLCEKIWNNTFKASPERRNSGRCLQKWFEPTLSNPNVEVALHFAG
mouse Juno, wild type, AVEXIS prey (from UniProt Q9EQF4) Loop 3 (mouse Juno loop 3 replaced with the corresponding human residues), sequence (Q9EQF4 20-222, change not shown): as above
mouse Juno, wild type, AVEXIS prey (from UniProt Q9EQF4) Loop 2 (mouse Juno loop 2 replaced with the corresponding human residues), sequence (Q9EQF4 20-222, change not shown): as above

For the substance “mouse Juno, wild type, AVEXIS prey (from UniProt Q9EQF4) Loop1 (mouse Juno loop 1 replaced with the corresponding human residues)”, the response turned out to be 0.16 A 485 nm in experiment [1] and 0.22 A 485 nm in experiment [2].

For the substance “mouse Juno, wild type, AVEXIS prey (from UniProt Q9EQF4) Loop 2 (mouse Juno loop 2 replaced with the corresponding human residues)”, the figures for the response in experiment [1] and in experiment [2] were 0.17 A 485 nm and 0.51 A 485 nm, respectively.

Turning to “mouse Juno, wild type, AVEXIS prey (from UniProt Q9EQF4) Loop 3 (mouse Juno loop 3 replaced with the corresponding human residues)”, the values for the response in experiment [1] and in experiment [2] were 0.51 A 485 nm and 0.52 A 485 nm, respectively.

The record behind these values is PMC4751342.
